T1: Porcine liver acylpeptide hydrolase (porcine, UniProt P19205 1-732)
T1 sequence (looked up): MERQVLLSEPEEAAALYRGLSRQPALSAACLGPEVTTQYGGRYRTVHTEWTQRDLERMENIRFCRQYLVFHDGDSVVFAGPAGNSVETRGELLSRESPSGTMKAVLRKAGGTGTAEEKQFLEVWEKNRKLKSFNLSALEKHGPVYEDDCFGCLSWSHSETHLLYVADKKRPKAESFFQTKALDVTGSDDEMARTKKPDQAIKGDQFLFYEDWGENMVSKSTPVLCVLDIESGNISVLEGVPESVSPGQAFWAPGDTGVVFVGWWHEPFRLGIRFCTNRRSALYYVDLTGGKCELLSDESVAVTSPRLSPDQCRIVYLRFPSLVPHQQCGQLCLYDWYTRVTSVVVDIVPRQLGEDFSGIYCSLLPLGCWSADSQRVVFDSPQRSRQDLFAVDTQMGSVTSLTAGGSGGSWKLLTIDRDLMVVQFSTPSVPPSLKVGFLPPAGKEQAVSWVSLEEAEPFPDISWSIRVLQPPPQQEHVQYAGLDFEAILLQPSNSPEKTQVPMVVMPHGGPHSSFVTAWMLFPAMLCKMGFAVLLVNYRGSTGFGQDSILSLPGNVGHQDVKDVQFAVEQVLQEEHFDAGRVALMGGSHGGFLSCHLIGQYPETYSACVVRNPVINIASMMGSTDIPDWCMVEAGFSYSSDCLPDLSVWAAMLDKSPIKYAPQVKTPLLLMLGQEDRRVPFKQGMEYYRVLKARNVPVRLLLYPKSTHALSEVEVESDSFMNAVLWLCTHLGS


Assays:
[1] = target: T1, Porcine liver acylpeptide hydrolase; assay: cell-based or functional assay
[2] = target: T1, Porcine liver acylpeptide hydrolase; assay: enzyme inhibition kinetics (Lineweaver-Burk); porcine APEH (0.5 nM in the legend; 3-5 nM in the methods) pre-incubated with 100 or 150 µM SsCEI 4 for 30 min at 37°C, 50 mM Tris-HCl pH 7.5, substrate acetyl-Ala-pNA; competitive inhibition; settings: both partners purified
Bovine α-chymotrypsin = Bovine α-chymotrypsin (bovine); assay: cell-based or functional assay

| Binder | IC50 of inhibition of porcine APEH activity (substrate Ac-Ala-pNA) [1] | Ki [2] | IC50 of inhibition of bovine α-chymotrypsin activity (Bovine α-chymotrypsin) |
| --- | --- | --- | --- |
| H-TILAEIKNINAD-NH2 (As SsCEI 2 with Ala at P1; also called S4; source: synthetic peptide (solid-phase Fmoc/tBu synthesis, purified by reverse-phase HPLC)) [SsCEI 4] | 84 µM | 4 µM | – |
| H-TILLEIKNINAD-NH2 [SsCEI 2] | 142 µM | – | 21.9 µM |
